Laboratory results: the DeepSol protein solubility set

assay: soluble on expression in E. coli; label from the status in PepcDB or PDB records

Sequence	soluble on expression in E. coli
MSALGAPAPYLHHPTDSHSGRVSFLGSQPSAEVTAVAQLLKDLDRSTFRKLLKLVVGALHGKDCREAVQHLGASANLSEERLAVLLAGTHTLLQQALRLPPASLKPDAFQDELQELGIPQDMIGDLASLAFGSQRPLLDSVAQQQGSSLPRVSNFRWRVDVAISTSAQSRSLQPSVLMQLKLTDGSAHRFEVPIAKFQELRYSVALVLKEMAELERKCERKLQD	not soluble
MSALRSVLLLCWRDIGHPQGGGSEAYLQRIGAQLAASGIAVTLRTARYPGAPRHELVDGVRISRAGGRYSVYLWALLAMAAARCGLGPLRRVRPDVVVDTQNGWPFVARLLYGRRSLVLVHHCHREQWPVAGRMMGRLGWYVESMLSPRLHRRNQYVTVSLPSARDLIALGVDSERIAVVRNGLDEAPSPTLSGPRAPTPRVVVLSRLVPHKQIEDALAAVAELQPRIPGLHLDIVGGGWWRQRLVDHVHRLDIADAVTFHGHVDDVTKHHVLQSSWVHLLPSRKEGWGLAVIEAAQHGVPTIGYRSSGGLADSIVDGVTGILVDDRAELVAWLEQLLSDSVLRDQLGAKAQARSGEFSWRQSAEALRSVLEAVQASRFVSGVV	soluble
MSANDFKPETWTSSANEALRVSIVGENAVQFSPLFTYPIYGDSEKIYGYKDLIIHLAFDSVTFKPYVNVKYSAKLGDDNIVDVEKKLLSFLPKDDVIVRDEAKWVDCFAEERKTHNLSDVFEKVSEYSLNGEEFVVYKSSLVDDFARRMHRRVQIFSLLFIEAANYIDETDPSWQIYWLLNKKTKELIGFVTTYKYWHYLGAKSFDEDIDKKFRAKISQFLIFPPYQNKGHGSCLYEAIIQSWLEDKSITEITVEDPNEAFDDLRDRNDIQRLRKLGYDAVFQKHSDLSDEFLESSRKSLKLEERQFNRLVEMLLLLNNSPSFELKVKNRLYIKNYDALDQTDPEKAREALQNSFILVKDDYRRIIESINKSQG	not soluble
MSAPLIDKYRKMATFDWKKLKAAVEGEEHVRLKSEVVAKMKSEPVFHRDYRVLSREEQREVVHQRWKKIVEWGLFKDPYSDLENFHALTETLEAYDQGTSARLFLHGNVFGAAVKSMGTDRHKDLIQKTENNEIVGAFCLTEVGHGSNTAEIQTTATFDNGELVFNTPSVSAIKCWAGNLAHSATHVVVYAQLHVEGKNEGFHGFVIQVRCPRTFQTLPGITIGDMGSKPGCWQGVENGWMEFKNHRAPLSALLNKGCDITPDGKYVTSFKSASEKQSVSLGTLSVGRLGIIAKGMMACTFASTIAIRYSVARRQFGPVKGAENEIPVLEYPLQQYRLFPYLSAAICIRIFQKKFVGHFTEYMMRVIMGEKSDELSEFSKEVHALSSGAKPVATWLGVESLGEARKACGGHGYLQMSRLNTLRDDNDPSQTFEGENFMILQQTSNILLGKAQSIGSIETPMSTMSFLNQKPSKFSSWSSNPVNDVLSAYRYLTYHLLQTTSAEAYRLKASGKNSFEVRNEIQIHRAVNLSVAYTEHTMIHWVQQFLKEIEDQSVKPVLQKVLNLFSLFLLERHLATLYITGYASGGKFGEDLREKLRLAVAELKPEAIALVDSIAPDDFILHSALGASDGKAYEHIMEEFRKYTNEQPRWVCDLAQFLQKRSQGSKL	not soluble
MSAPVQCPIHPDVHLIEDHRAGDLVCPACGLVVGDRLVDVGTEWRSFSNERSGNDPSRVGAPENPLLSGGDLSTTIAVGFGGSDSDNSLANAQRKSMNNTDRQMTAAMSLIREMSERIHLPRNIQDSASRIFKDVLESKALRGKNNEAQAAACLYIACRKDGVPRTFKEICAVSRVSKKEIGRCFKIIVRSLETNLEQITSADFMSRFCGNLSLPNSIQAAATRIAKCAVDMDLVAGRTPISIAAAAIYMASQASAEKRSAKEIGDVAGAAEITVRQTYKLLYPKALELFPKDFRFVTPIDALPNS	not soluble
MSASQKEGKLSTATISVDGKSAEMPVLSGTLGPDVIDIRKLPAQLGVFTFDPGYGETAACNSKITFIDGDKGVLLHRGYPIAQLAENASYEEVIYLLLNGELPNKAQYDTFTNTLTNHTLLHEQIRNFFNGFRRDAHPMAILCGTVGALSAFYPDANDIAIPANRDLAAMRLIAKIPTIAAWAYKYTQGEAFIYPRNDLNYAENFLSMMFARMSEPYKVNPVLARAMNRILILHADHEQNASTSTVRLAGSTGANPFACIAAGIAALWGPAHGGANEAVLKMLARIGKKENIPAFIAQVKDKNSGVKLMGFGHRVYKNFDPRAKIMQQTCHEVLTELGIKDDPLLDLAVELEKIALSDDYFVQRKLYPNVDFYSGIILKAMGIPTSMFTVLFAVARTTGWVSQWKEMIEEPGQRISRPRQLYIGAPQRDYVPLAKR	soluble
MSCSHYEERVEKVELPQLKVNGMAIGEDLLARELQYHPADSYALALEAACRALIVRQLLLQRADALGIEARCEDGETPEEARIRQLLEEEVQVPEADEDACRTWYAANPGRLLGPWRLQLRHVLLACAPDDLEGRETARKQAAELLDELRGHPERFVDLARRFSACPSKESGGDLGWIEPGQTVPEFEKRLLRRAPGLLEHPLESRYGLHVVELLAREGGEPLDFDAARAQIAAHLQAQVLQRAVGQYIGVLAGD	not soluble
MSDALLAPLNEAQRQAVLHFEGPALVVAGAGSGKTRTVVHRVAYLVARRGVFPSEILAVTFTNKAAEEMRERLRGLVPGAGEVWVSTFHAAALRILRVYGERVGLRPGFVVYDEDDQTALLKEVLKELALSARPGPIKALLDRAKNRGVGLKALLGELPEYYAGLSRGRLGDVLVRYQEALKAQGALDFGDILLYALRLLEEDEEVLRLVRKRARFIHVDEYQDTSPVQYRFTRLLAGEEANLMAVGDPDQGIYSFRAADIKNILDFTRDYPEARVYRLEENYRSTEAILRFANAVIVKNALRLEKALRPVKRGGEPVRLYRAEDAREEARFVAEEIARLGPPWDRYAVLYRTNAQSRLLEQALAGRGIPARVVGGVGFFERAEVKDLLAYARLALNPLDAVSLKRVLNTPPRGIGPATWARVQLLAQEKGLPPWEALKEAARTFSRPEPLRHFVALVEELQDLVFGPAEAFFRHLLEATDYPAYLREAYPEDAEDRLENVEELLRAAKEAEDLQDFLDRVALTAKAEEPAEAEGRVALMTLHNAKGLEFPVVFLVGVEEGLLPHRNSVSTLEGLEEERRLFYVGITRAQERLYLSHAEEREVYGRREPARPSRFLEEVEEGLYEVYDPYRRPPSPPPHRPRPGAFRGGERVVHPRFGPGTVVAAQGDEVTVHFEGFGLKRLSLKYAELKPA	soluble
MSDDIFRLATVEDASELLKLVNSAFQPIRQLDIDWPSTRADIQMVSENIEHHSAIVLERDGKLISTITIRFPWESETPPSKYPFVWWFATLPEYKGQGAGSKLLTYVEEKVLRDMLKAPALTLGTSARKHPWLADMYRRRGYEVYFEQEKDGDIGVMMHKVLIPERFNPTLLGAPSWA	soluble
MSDEIVTNKSVTYVNNTTPVTITSSELDLRSCYQDDEVVIEVHAAALNPIDFITHQLCNSYIFGKYPKTYSRDYSGVIIKAGKDVDNRWKVGDKVNGMYSHIYGERGTLTHYLILNPAKDVPITHMVEVPKDENDPYDDFVYAAAWPLTFGTAFSTLYDFKKDWTSDSKVLVIGASTSVSYAFVHIAKNYFNIGTVVGICSKNSIERNKKLGYDYLVPYDEGSIVENVKKLKQSVLENDKFDMIFDSVGNHDFFPVIDQFLKPKAKNSFYVTIAGNNKADYKNISWRDFVSLSSILKAINPFKKYNWRFGHPYPPNNFIEVGNEMIKKGTYKPPIDSVYEFDQYKEAIDRLMSNRAKGKVVVKMK	soluble
MSDEKIINQPQDVVSEMLDGLTYAYGDLIEKVPDFEIIQRKSPKSGKVALVSGGGSGHEPAHAGFVGEGMLSAAVCGAIFTSPTPDQIYEAIKSADEGAGVLLIIKNYLGDVMNFEMAREMAEMEEIKVEQIIVDDDIAVENSLYTQGRRGVAGTVLVHKILGAAAHQEASLDEIKDLADKVVKNIKTIGLALSAATVPEVGKPGFVLDDNEIEYGVGIHSEPGYRREKMKTSYELATELVGKLKEEFKFEAGQKYGILVNGMGATPLMEQFIFMNDVAKLLTEENIEILFKKVGNYMTSIDMAGLSLTMIKLEDDQWLKNLNEDVKTISWG	soluble
MSDETDWYGPEAATFGDRLAAAREASGMTQAQLARRLGVKKATINGWEDDLSEPRANRLSMLAGLLNVSIVWLITGEGQGGEALNETDETARDMAALLTELRSLRADLQASGQRAARLEKQLRQIMEHSA	not soluble
MSDFLKDCFQKIGWEKDHVSFGDLPLFLKAMAYRFPFENRAVLAKENYKITKEELWRRLLKDQHGGLCYDLNGFLYFVLREAGFHVKLIRGTVYAGDQEGWALEGTHAAVWLSAENGDYLVDIGFGINLALQPIPLSGETVQSPVGSFRIKKEETEKGSYVLLMDKGEGWQIGYAFTLEESDLGDLDNMKDIIHSHEKSPFNKSLLASKLTPSGRMVMSERHFTIYENGGNIQKSDIGPSGFEEKLNTH	not soluble
MSDLVTKFESLIISKYPVSFTKEQSAQAAQWESVLKSGQIQPHLDQLNLVLRDNTFIVSTLYPTSTDVHVFEVALPLIKDLVASSKDVKSTYTTYRHILRWIDYMQNLLEVSSTDKLEINHDLDLPHEVIEKKKKAPAGGAADAAAKADEDVSKKAKKQDHPRGKPDEETLKKLREEAKAKKAAKKAANAKQQQEQQNKAPEKPKPSAIDFRVGFIQKAIKHPDADSLYVSTIDVGDEEGPRTVCSGLVKHFPLDAMQERYVVVVCNLKPVNMRGIKSTAMVLCGSNDDKVEFVEPPKDSKAGDKVFFEGFGDEAPMKQLNPKKKIWEHLQPHFTTNDGLEVIFKDEEEKDHPVRKLTNAKGESFKVASIANAQVR	not soluble
MSDNDELQQIAHLRREYTKGGLRRRDLPADPLTLFERWLSQACEAKLADPTAMVVATVDEHGQPYQRIVLLKHYDEKGMVFYTNLGSRKAHQIENNPRVSLLFPWHTLERQVMVIGKAERLSTLEVMKYFHSRPRDSQIGAWVSKQSSRISARGILESKFLELKQKFQQGEVPLPSFWGGFRVSLEQIEFWQGGEHRLHDRFLYQRENDAWKIDRLAP	soluble
MSDNNQALKDAGLKVTLPRLKILEVLQQPECQHISAEELYKKLIDLGEEIGLATVYRVLNQFDDAGIVTRHHFEGGKSVFELSTQHHHDHLVCLDCGEVIEFSDDVIEQRQKEIAAKYNVQLTNHSLYLYGKCGSDGSCKDNPNAHKPKK	soluble
